Results published in patent publication US20200165349A1 (Genmab, published 2020).

How the values were obtained:
Human CD137 [1] = target: T1, Human CD137 (human, UniProt Q07011 24-255); assay: flow cytometry on FreeStyle HEK293 cells expressing CD137 (alanine scanning), 3 µg/mL A488-labeled antibody
T1 construct: also called hCD137 wt; 4-1BB
Procedure: The wild type CD137 and alanine mutants were expressed individually in FreeStyle HEK293 cells according to the manufacturer's instructions (Thermo Scientific). One day post transfection, the cells were harvested. […] Cells were incubated at room temperature for 30 min. Subsequently, cells were washed twice by centrifugation using 150-200 μL FACS buffer. Cells were suspended in 30 μL FACS buffer and stored at 4° C. until analysis by flow cytometry using an iQue screener.

Human PD-L1 = target: T2, Human PD-L1 (human, UniProt Q9NZQ7 19-290); assay: flow cytometry on MDA-MB-231 tumor cells
T2 construct: Amino acids 1-18 are stated to be a predicted signal peptide; also called CD274; B7H1
T2 sequence (Q9NZQ7 19-290): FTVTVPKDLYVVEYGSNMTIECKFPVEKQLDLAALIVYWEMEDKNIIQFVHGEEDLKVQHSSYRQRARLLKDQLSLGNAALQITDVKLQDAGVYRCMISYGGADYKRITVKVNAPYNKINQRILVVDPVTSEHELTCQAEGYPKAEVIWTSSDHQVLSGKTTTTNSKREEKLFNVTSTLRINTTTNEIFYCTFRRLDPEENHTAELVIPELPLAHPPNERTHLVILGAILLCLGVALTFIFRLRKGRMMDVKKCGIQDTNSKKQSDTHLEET
Procedure: After washing twice in FACS buffer, cells were incubated with secondary antibody at 4° C. for 30 min. […] Next, cells were washed twice in FACS buffer, re-suspended in 20 μL FACS buffer and analyzed on an iQue screener (Intellicyt Corporation, USA). Binding curves were analyzed using non-linear regression (sigmoidal dose-response with variable slope) using GraphPad Prism V75.04 software (GraphPad Software, San Diego, Calif., USA).

Human CD137 [2] = target: T1, Human CD137; assay: cell-based or functional assay
Human CD137 [3] = target: T1, Human CD137; assay: cell-based or functional assay; remark: listed apart in the source

B1: CD137-005-FEAR-A488 (antibody, V domains shown)
VH: QSVEESGGRLVTPGTPLTLTCTASGFTISDFHVTWVRQAPGKGLEWIGTIITSASTTAYATWARGRFTISKSSTTVNLKIVSPTTEDTATYFCARSTYTDTSGYYFDFWGQGTLVTVSS
VL: AQVLTQTASPVSAAVGGTVIINCQSSQSIYNGNRLSWYQQKPGQPPKLLIYSASTLASGVSSRFKGSGSGTQFTLAISDVQSDDAATYYCLGSYDCDSADCFAFGGGTEVVVER
notes: Conjugated with Alexa Fluor 488
- binding result (Human CD137 [1]): binds

B2: b12-FEAL×CD137-009-FEAR-A488 (bispecific antibody, not shown: large carriers)
heavy 1: QVQLVQSGAEVKKPGASVKVSCQASGYRFSNFVIHWVRQAPGQRFEWMGWINPYNGNKEFSAKFQDRVTFTADTSANTAYMELRSLRSADTAVYYCARVGPYSWDDSPQDNYYMDVWGKGTTVIVSSASTKGPSVFPLAPSSKSTSGGTAALGCLVKDYFPEPVTVSWNSGALTSGVHTFPAVLQSSGLYSLSSVVTVPSSSLGTQTYICNVNHKPSNTKVDKRVEPKSCDKTHTCPPCPAPEFEGGPSVFLFPPKPKDTLMISRTPEVTCVVVAVSHEDPEVKFNWYVDGVEVHNAKTKPREEQYNSTYRVVSVLTVLHQDWLNGKEYKCKVSNKALPAPIEKTISKAKGQPREPQVYTLPPSREEMTKNQVSLTCLVKGFYPSDIAVEWESNGQPENNYKTTPPVLDSDGSFLLYSKLTVDKSRWQQGNVFSCSVMHEALHNHYTQKSLSLSPGK
light 1: EIVLTQSPGTLSLSPGERATFSCRSSHSIRSRRVAWYQHKPGQAPRLVIHGVSNRASGISDRFSGSGSGTDFTLTITRVEPEDFALYYCQVYGASSYTFGQGTKLERK
heavy 2: QSLEESGGRLVTPGTPLTLTCTVSGFSLNDYWMSWVRQAPGKGLEWIGYIDVGGSLYYASWAKGRFTISRTSTTVDLKMTSLTTEDTATYFCARGGLTYGFDLWGPGTLVTVSSASTKGPSVFPLAPSSKSTSGGTAALGCLVKDYFPEPVTVSWNSGALTSGVHTFPAVLQSSGLYSLSSVVTVPSSSLGTQTYICNVNHKPSNTKVDKRVEPKSCDKTHTCPPCPAPEFEGGPSVFLFPPKPKDTLMISRTPEVTCVVVAVSHEDPEVKFNWYVDGVEVHNAKTKPREEQYNSTYRVVSVLTVLHQDWLNGKEYKCKVSNKALPAPIEKTISKAKGQPREPQVYTLPPSREEMTKNQVSLTCLVKGFYPSDIAVEWESNGQPENNYKTTPPVLDSDGSFFLYSRLTVDKSRWQQGNVFSCSVMHEALHNHYTQKSLSLSPGK
light 2: DIVMTQTPASVSEPVGGTVTINCQASEDISSYLAWYQQKPGQRPKRLIYGASDLASGVPSRFSASGSGTEYALTISDLESADAATYYCHYYATISGLGVAFGGGTEVVVKRTVAAPSVFIFPPSDEQLKSGTASVVCLLNNFYPREAKVQWKVDNALQSGNSQESVTEQDSKDSTYSLSSTLTLSKADYEKHKVYACEVTHQGLSSPVTKSFNRGEC
- binding result (Human CD137 [1]): binds

B3: PD-L1-547-FEAR (antibody, human IgG1, lambda, V domains shown)
VH: EVQLLEPGGGLVQPGGSLRLSCEASGSTFSTYAMSWVRQAPGKGLEWVSGFSGSGGFTFYADSVRGRFTISRDSSKNTLFLQMSSLRAEDTAVYYCAIPARGYNYGSFQHWGQGTLVTVSS
VL: SYVLTQPPSVSVAPGQTARITCGGNNIGSKSVHWYQQKPGQAPVLVVYDDNDRPSGLPERFSGSNSGNTATLTISRVEAGDEADYYCQVWDSSSDHVVFGGGTKLTVLG
notes: Human IgG1 lambda with L234F, L235E, D265A and K409R
- binding result (Human PD-L1): binds

B4: PD-L1-547-FEAL×CD137-009-HC7LC2-FEAR (bispecific antibody, human IgG1, kappa, lambda)
heavy 1: EVQLLEPGGGLVQPGGSLRLSCEASGSTFSTYAMSWVRQAPGKGLEWVSGFSGSGGFTFYADSVRGRFTISRDSSKNTLFLQMSSLRAEDTAVYYCAIPARGYNYGSFQHWGQGTLVTVSSASTKGPSVFPLAPSSKSTSGGTAALGCLVKDYFPEPVTVSWNSGALTSGVHTFPAVLQSSGLYSLSSVVTVPSSSLGTQTYICNVNHKPSNTKVDKRVEPKSCDKTHTCPPCPAPEFEGGPSVFLFPPKPKDTLMISRTPEVTCVVVAVSHEDPEVKFNWYVDGVEVHNAKTKPREEQYNSTYRVVSVLTVLHQDWLNGKEYKCKVSNKALPAPIEKTISKAKGQPREPQVYTLPPSREEMTKNQVSLTCLVKGFYPSDIAVEWESNGQPENNYKTTPPVLDSDGSFLLYSKLTVDKSRWQQGNVFSCSVMHEALHNHYTQKSLSLSPGK
light 1: SYVLTQPPSVSVAPGQTARITCGGNNIGSKSVHWYQQKPGQAPVLVVYDDNDRPSGLPERFSGSNSGNTATLTISRVEAGDEADYYCQVWDSSSDHVVFGGGTKLTVLGQPKAAPSVTLFPPSSEELQANKATLVCLISDFYPGAVTVAWKADSSPVKAGVETTTPSKQSNNKYAASSYLSLTPEQWKSHRSYSCQVTHEGSTVEKTVAPTECS
heavy 2: EVQLVESGGGLVQPGRSLRLSCTASGFSLNDYWMSWVRQAPGKGLEWVGYIDVGGSLYYAASVKGRFTISRDDSKSIAYLQMNSLKTEDTAVYYCARGGLTYGFDLWGQGTLVTVSSASTKGPSVFPLAPSSKSTSGGTAALGCLVKDYFPEPVTVSWNSGALTSGVHTFPAVLQSSGLYSLSSVVTVPSSSLGTQTYICNVNHKPSNTKVDKRVEPKSCDKTHTCPPCPAPEFEGGPSVFLFPPKPKDTLMISRTPEVTCVVVAVSHEDPEVKFNWYVDGVEVHNAKTKPREEQYNSTYRVVSVLTVLHQDWLNGKEYKCKVSNKALPAPIEKTISKAKGQPREPQVYTLPPSREEMTKNQVSLTCLVKGFYPSDIAVEWESNGQPENNYKTTPPVLDSDGSFFLYSRLTVDKSRWQQGNVFSCSVMHEALHNHYTQKSLSLSPGK
light 2: DIVMTQSPSSLSASVGDRVTITCQASEDISSYLAWYQQKPGKAPKRLIYGASDLASGVPSRFSASGSGTDYTFTISSLQPEDIATYYCHYYATISGLGVAFGGGTKVEIKRTVAAPSVFIFPPSDEQLKSGTASVVCLLNNFYPREAKVQWKVDNALQSGNSQESVTEQDSKDSTYSLSSTLTLSKADYEKHKVYACEVTHQGLSSPVTKSFNRGEC
- EC50 value, CD8+ T-cell expansion, donor 1, 0.03 µg/ml anti-CD3 (Human CD137 [2]): 12.2 ng/mL
- EC50 value, CD8+ T-cell expansion, donor 2, 0.09 µg/ml anti-CD3 (Human CD137 [2]): 6.89 ng/mL

B5: b12-FEAL×PD-L1-547-FEAR (bispecific antibody, not shown: large carriers)
heavy 1: QVQLVQSGAEVKKPGASVKVSCQASGYRFSNFVIHWVRQAPGQRFEWMGWINPYNGNKEFSAKFQDRVTFTADTSANTAYMELRSLRSADTAVYYCARVGPYSWDDSPQDNYYMDVWGKGTTVIVSSASTKGPSVFPLAPSSKSTSGGTAALGCLVKDYFPEPVTVSWNSGALTSGVHTFPAVLQSSGLYSLSSVVTVPSSSLGTQTYICNVNHKPSNTKVDKRVEPKSCDKTHTCPPCPAPEFEGGPSVFLFPPKPKDTLMISRTPEVTCVVVAVSHEDPEVKFNWYVDGVEVHNAKTKPREEQYNSTYRVVSVLTVLHQDWLNGKEYKCKVSNKALPAPIEKTISKAKGQPREPQVYTLPPSREEMTKNQVSLTCLVKGFYPSDIAVEWESNGQPENNYKTTPPVLDSDGSFLLYSKLTVDKSRWQQGNVFSCSVMHEALHNHYTQKSLSLSPGK
light 1: EIVLTQSPGTLSLSPGERATFSCRSSHSIRSRRVAWYQHKPGQAPRLVIHGVSNRASGISDRFSGSGSGTDFTLTITRVEPEDFALYYCQVYGASSYTFGQGTKLERK
heavy 2: EVQLLEPGGGLVQPGGSLRLSCEASGSTFSTYAMSWVRQAPGKGLEWVSGFSGSGGFTFYADSVRGRFTISRDSSKNTLFLQMSSLRAEDTAVYYCAIPARGYNYGSFQHWGQGTLVTVSSASTKGPSVFPLAPSSKSTSGGTAALGCLVKDYFPEPVTVSWNSGALTSGVHTFPAVLQSSGLYSLSSVVTVPSSSLGTQTYICNVNHKPSNTKVDKRVEPKSCDKTHTCPPCPAPEFEGGPSVFLFPPKPKDTLMISRTPEVTCVVVAVSHEDPEVKFNWYVDGVEVHNAKTKPREEQYNSTYRVVSVLTVLHQDWLNGKEYKCKVSNKALPAPIEKTISKAKGQPREPQVYTLPPSREEMTKNQVSLTCLVKGFYPSDIAVEWESNGQPENNYKTTPPVLDSDGSFFLYSRLTVDKSRWQQGNVFSCSVMHEALHNHYTQKSLSLSPGK
light 2: SYVLTQPPSVSVAPGQTARITCGGNNIGSKSVHWYQQKPGQAPVLVVYDDNDRPSGLPERFSGSNSGNTATLTISRVEAGDEADYYCQVWDSSSDHVVFGGGTKLTVLGQPKAAPSVTLFPPSSEELQANKATLVCLISDFYPGAVTVAWKADSSPVKAGVETTTPSKQSNNKYAASSYLSLTPEQWKSHRSYSCQVTHEGSTVEKTVAPTECS
notes: also called monovalent PD-L1 antibody; monovalent PD-L1-control antibody
- binding result (Human PD-L1): binds

B6: CD137-009-FEAL×PD-L1-547-FEAR (bispecific antibody, human IgG1, kappa, lambda)
heavy 1: QSLEESGGRLVTPGTPLTLTCTVSGFSLNDYWMSWVRQAPGKGLEWIGYIDVGGSLYYASWAKGRFTISRTSTTVDLKMTSLTTEDTATYFCARGGLTYGFDLWGPGTLVTVSSASTKGPSVFPLAPSSKSTSGGTAALGCLVKDYFPEPVTVSWNSGALTSGVHTFPAVLQSSGLYSLSSVVTVPSSSLGTQTYICNVNHKPSNTKVDKRVEPKSCDKTHTCPPCPAPEFEGGPSVFLFPPKPKDTLMISRTPEVTCVVVAVSHEDPEVKFNWYVDGVEVHNAKTKPREEQYNSTYRVVSVLTVLHQDWLNGKEYKCKVSNKALPAPIEKTISKAKGQPREPQVYTLPPSREEMTKNQVSLTCLVKGFYPSDIAVEWESNGQPENNYKTTPPVLDSDGSFLLYSKLTVDKSRWQQGNVFSCSVMHEALHNHYTQKSLSLSPGK
light 1: DIVMTQTPASVSEPVGGTVTINCQASEDISSYLAWYQQKPGQRPKRLIYGASDLASGVPSRFSASGSGTEYALTISDLESADAATYYCHYYATISGLGVAFGGGTEVVVKRTVAAPSVFIFPPSDEQLKSGTASVVCLLNNFYPREAKVQWKVDNALQSGNSQESVTEQDSKDSTYSLSSTLTLSKADYEKHKVYACEVTHQGLSSPVTKSFNRGEC
heavy 2: EVQLLEPGGGLVQPGGSLRLSCEASGSTFSTYAMSWVRQAPGKGLEWVSGFSGSGGFTFYADSVRGRFTISRDSSKNTLFLQMSSLRAEDTAVYYCAIPARGYNYGSFQHWGQGTLVTVSSASTKGPSVFPLAPSSKSTSGGTAALGCLVKDYFPEPVTVSWNSGALTSGVHTFPAVLQSSGLYSLSSVVTVPSSSLGTQTYICNVNHKPSNTKVDKRVEPKSCDKTHTCPPCPAPEFEGGPSVFLFPPKPKDTLMISRTPEVTCVVVAVSHEDPEVKFNWYVDGVEVHNAKTKPREEQYNSTYRVVSVLTVLHQDWLNGKEYKCKVSNKALPAPIEKTISKAKGQPREPQVYTLPPSREEMTKNQVSLTCLVKGFYPSDIAVEWESNGQPENNYKTTPPVLDSDGSFFLYSRLTVDKSRWQQGNVFSCSVMHEALHNHYTQKSLSLSPGK
light 2: SYVLTQPPSVSVAPGQTARITCGGNNIGSKSVHWYQQKPGQAPVLVVYDDNDRPSGLPERFSGSNSGNTATLTISRVEAGDEADYYCQVWDSSSDHVVFGGGTKLTVLGQPKAAPSVTLFPPSSEELQANKATLVCLISDFYPGAVTVAWKADSSPVKAGVETTTPSKQSNNKYAASSYLSLTPEQWKSHRSYSCQVTHEGSTVEKTVAPTECS
- EC50 of the induction of antigen-specific T cell proliferation, '% divided cells' (Human CD137 [3]): 3.49 ng/mL
- EC50 of the induction of antigen-specific T cell proliferation, 'proliferation index' (Human CD137 [3]): 5.39 ng/mL
